The supplement of paper PMC11246515
± gives the standard deviation of the averaged measurements.

Experiment: total protein half-life in vivo (active degradation + dilution); higher = more stable protein
[1] = E. coli NCM3722 delta-clpP delta-lon delta-hslV, growth: N-lim chemostat, doubling time 6 h
[2] = E. coli NCM3722 delta-smpB, growth: N-lim chemostat, doubling time 6 h
[3] = wild type E. coli NCM3722, growth: C-lim chemostat, doubling time 6 h
[4] = wild type E. coli NCM3722, growth: C-lim chemostat, doubling time 12 h
[5] = wild type E. coli NCM3722, growth: N-lim chemostat, doubling time 6 h
[6] = wild type E. coli NCM3722, growth: N-lim chemostat, doubling time 12 h
[7] = E. coli NCM3722 delta-clpP, growth: N-lim chemostat, doubling time 6 h
[8] = E. coli NCM3722 delta-hslV, growth: N-lim chemostat, doubling time 6 h
[9] = E. coli NCM3722 delta-lon, growth: N-lim chemostat, doubling time 6 h
[10] = wild type E. coli NCM3722, growth: C-lim chemostat, doubling time 3 h
[11] = wild type E. coli NCM3722, growth: P-lim chemostat, doubling time 12 h
[12] = wild type E. coli NCM3722, growth: P-lim chemostat, doubling time 6 h

Sequence: MSQAKSNKMGVVQLTILTMVNMMGSGIIMLPTKLAEVGTISIISWLVTAVGSMALAWAFAKCGMFSRKSGGMGGYAEYAFGKSGNFMANYTYGVSLLIANVAIAISAVGYGTELLGASLSPVQIGLATIGVLWICTVANFGGARITGQISSITVWGVIIPVVGLCIIGWFWFSPTLYVDSWNPHHAPFFSAVGSSIAMTLWAFLGLESACANTDVVENPERNVPIAVLGGTLGAAVIYIVSTNVIAGIVPNMELANSTAPFGLAFAQMFTPEVGKVIMALMVMSCCGSLLGWQFTIAQVFKSSSDEGYFPKIFSRVTKVDAPVQGMLTIVIIQSGLALMTISPSLNSQFNVLVNLAVVTNIIPYILSMAALVIIQKVANVPPSKAKVANFVAFVGAMYSFYALYSSGEEAMLYGSIVTFLGWTLYGLVSPRFELKNKHG [P0AAF1]
- total protein half-life in vivo [1]: 6.73 ± 1.1 h
- total protein half-life in vivo [2]: 5.34 ± 1 h
- total protein half-life in vivo [3]: > 8 h
- total protein half-life in vivo [4]: > 16 h
- total protein half-life in vivo [5]: 4.53 h
- total protein half-life in vivo [6]: > 16 h

Sequence: MSQATSMRKRHRFNSRMTRIVLLISFIFFFGRFIYSSVGAWQHHQSKKEAQQSTLSVESPVQR
- total protein half-life in vivo [1]: 4.55 h
- total protein half-life in vivo [7]: 4.47 h
- total protein half-life in vivo [8]: 4.32 h
- total protein half-life in vivo [9]: 4.57 ± 0.97 h
- total protein half-life in vivo [2]: 4.09 ± 0.36 h
- total protein half-life in vivo [10]: 1.7 ± 0.046 h
- total protein half-life in vivo [3]: 3.19 h
- total protein half-life in vivo [4]: 5.95 h
- total protein half-life in vivo [5]: 3.526 ± 0.027 h
- total protein half-life in vivo [6]: 7.56 ± 0.76 h
- total protein half-life in vivo [11]: 4.32 ± 0.086 h

Sequence: MSQDPFQEREAEKYANPIPSREFILEHLTKREKPASRDELAVELHIEGEEQLEGLRRRLRAMERDGQLVFTRRQCYALPERLDLVKGTVIGHRDGYGFLRVEGRKDDLYLSSEQMKTCIHGDQVLAQPLGADRKGRREARIVRVLVPKTSQIVGRYFTEAGVGFVVPDDSRLSFDILIPPDQIMGARMGFVVVVELTQRPTRRTKAVGKIVEVLGDNMGTGMAVDIALRTHEIPYIWPQAVEQQVAGLKEEVPEEAKAGRVDLRDLPLVTIDGEDARDFDDAVYCEKKRGGGWRLWVAIADVSYYVRPSTPLDREARNRGTSVYFPSQVIPMLPEVLSNGLCSLNPQVDRLCMVCEMTVSSKGRLTGYKFYEAVMSSHARLTYTKVWHILQGDQDLREQYAPLVKHLEELHNLYKVLDKAREERGGISFESEEAKFIFNAERRIERIEQTQRNDAHKLIEECMILANISAARFVEKAKEPALFRIHDKPSTEAITSFRSVLAELGLELPGGNKPEPRDYAELLESVADRPDAEMLQTMLLRSMKQAIYDPENRGHFGLALQSYAHFTSPIRRYPDLTLHRAIKYLLAKEQGHQGNTTETGGYHYSMEEMLQLGQHCSMAERRADEATRDVADWLKCDFMLDQVGNVFKGVISSVTGFGFFVRLDDLFIDGLVHVSSLDNDYYRFDQVGQRLMGESSGQTYRLGDRVEVRVEAVNMDERKIDFSLISSERAPRNVGKTAREKAKKGDAGKKGGKRRQVGKKVNFEPDSAFRGEKKTKPKAAKKDARKAKKPSAKTQKIAAATKAKRAAKKKVAE
- total protein half-life in vivo [1]: 6.54 ± 0.13 h
- total protein half-life in vivo [8]: 5.66 ± 0.29 h
- total protein half-life in vivo [9]: 5.87 ± 0.12 h
- total protein half-life in vivo [2]: 5.35 ± 0.14 h
- total protein half-life in vivo [10]: 3.06 ± 0.13 h
- total protein half-life in vivo [3]: 6.06 ± 0.13 h
- total protein half-life in vivo [4]: 12.1 ± 0.14 h
- total protein half-life in vivo [5]: 5.67 ± 0.095 h
- total protein half-life in vivo [6]: 9.82 ± 0.13 h
- total protein half-life in vivo [12]: 5.679 ± 0.029 h
- total protein half-life in vivo [11]: 11.2 ± 0.32 h

Sequence: MSQETPASTTEAQIKNKRRISPFWLLPFIALMIASWLIWDSYQDRGNTVTIDFMSADGIVPGRTPVRYQGVEVGTVQDISLSDDLRKIEVKVSIKSDMKDALREETQFWLVTPKASLAGVSGLDALVGGNYIGMMPGKGKEQDHFVALDTQPKYRLDNGDLMIHLQAPDLGSLNSGSLVYFRKIPVGKVYDYAINPNKQGVVIDVLIERRFTDLVKKGSRFWNVSGVDANVSISGAKVKLESLAALVNGAIAFDSPEESKPAEAEDTFGLYEDLAHSQRGVIIKLELPSGAGLTADSTPLMYQGLEVGQLTKLDLNPGGKVTGEMTVDPSVVTLLRENTRIELRNPKLSLSDANLSALLTGKTFELVPGDGEPRKEFVVVPGEKALLHEPDVLTLTLTAPESYGIDAGQPLILHGVQVGQVIDRKLTSKGVTFTVAIEPQHRELVKGDSKFVVNSRVDVKVGLDGVEFLGASASEWINGGIRILPGDKGEMKASYPLYANLEKALENSLSDLPTTTVSLSAETLPDVQAGSVVLYRKFEVGEVITVRPRANAFDIDLHIKPEYRNLLTSNSVFWAEGGAKVQLNGSGLTVQASPLSRALKGAISFDNLSGASASQRKGDKRILYASETAARAVGGQITLHAFDAGKLAVGMPIRYLGIDIGQIQTLDLITARNEVQAKAVLYPEYVQTFARGGTRFSVVTPQISAAGVEHLDTILQPYINVEPGRGNPRRDFELQEATITDSRYLDGLSIIVEAPEAGSLGIGTPVLFRGLEVGTVTGMTLGTLSDRVMIAMRISKRYQHLVRNNSVFWLASGYSLDFGLTGGVVKTGTFNQFIRGGIAFATPPGTPLAPKAQEGKHFLLQESEPKEWREWGTALPK
- total protein half-life in vivo [1]: 6.34 ± 0.49 h
- total protein half-life in vivo [7]: 6.12 ± 0.52 h
- total protein half-life in vivo [8]: 6.516 ± 0.036 h
- total protein half-life in vivo [9]: 6.06 ± 0.19 h
- total protein half-life in vivo [2]: 6.04 ± 0.27 h
- total protein half-life in vivo [10]: 3.01 ± 0.3 h
- total protein half-life in vivo [5]: 6.32 ± 0.48 h
- total protein half-life in vivo [6]: 13.1 ± 0.76 h
- total protein half-life in vivo [12]: 6.43 ± 0.74 h
- total protein half-life in vivo [11]: 13.5 ± 0.26 h

Sequence: MSQKTLFTKSALAVAVALISTQAWSAGFQLNEFSSSGLGRAYSGEGAIADDAGNVSRNPALITMFDRPTFSAGAVYIDPDVNISGTSPSGRSLKADNIAPTAWVPNMHFVAPINDQFGWGASITSNYGLATEFNDTYAGGSVGGTTDLETMNLNLSGAYRLNNAWSFGLGFNAVYARAKIERFAGDLGQLVAGQIMQSPAGQTQQGQALAATANGIDSNTKIAHLNGNQWGFGWNAGILYELDKNNRYALTYRSEVKIDFKGNYSSDLNRAFNNYGLPIPTATGGATQSGYLTLNLPEMWEVSGYNRVDPQWAIHYSLAYTSWSQFQQLKATSTSGDTLFQKHEGFKDAYRIALGTTYYYDDNWTFRTGIAFDDSPVPAQNRSISIPDQDRFWLSAGTTYAFNKDASVDVGVSYMHGQSVKINEGPYQFESEGKAWLFGTNFNYAF
- total protein half-life in vivo [1]: 6.74 ± 1.8 h
- total protein half-life in vivo [2]: 5.52 ± 0.67 h
- total protein half-life in vivo [10]: 3.2 ± 0.064 h
- total protein half-life in vivo [3]: 6.165 ± 0.014 h
- total protein half-life in vivo [4]: 10.9 ± 0.23 h
- total protein half-life in vivo [5]: 6.3 ± 0.37 h
- total protein half-life in vivo [6]: 11.1 ± 0.23 h
- total protein half-life in vivo [12]: 6.09 ± 0.34 h
- total protein half-life in vivo [11]: 12.2 ± 1.2 h

Sequence: MSQLCPCGSAVEYSLCCHPYVSGEKVAPDPEHLMRSRYCAFVMQDADYLIKTWHPSCGAAALRAELMAGFAHTEWLGLTVFEHCWQDADNIGFVSFVARFTEGGKTGAIIERSRFLKENGQWYYIDGTRPQFGRNDPCPCGSGKKFKKCCGQ
- total protein half-life in vivo [1]: 5.73 ± 0.5 h
- total protein half-life in vivo [8]: > 8 h
- total protein half-life in vivo [2]: 5.47 h
- total protein half-life in vivo [3]: 6.31 h
- total protein half-life in vivo [5]: 5.43 ± 0.68 h
- total protein half-life in vivo [6]: 8.52 ± 0.57 h
- total protein half-life in vivo [12]: 5.3 ± 0.3 h
